Experimental data as given in patent US5770691A, “Discriminatory substrates for MMP hydrolysis” (Regents of the University of Minnesota, priority 1995, dated 1998).

Legend:
[1] = system: T1, COc1ccc2c(CC(=O)N3CCC[C@H]3C(=O)N[C@@H](CCCCN)C(=O)N3CCC[C@H]3C(=O)N[C@@H](CCC(N)=O)C(=O)N[C@@H](CCC(N)=O)C(=O)N[C@@H](Cc3ccccc3)C(=O)N[C@@H](Cc3ccccc3)C(=O)NCC(=O)N[C@@H](CC(C)C)C(=O)N[C@@H](CCCCNc3ccc([N+](=O)[O-])cc3[N+](=O)[O-])C(=O)NCC(=O)O)cc(=O)oc2c1; experiment: Fluorometric hydrolysis of synthetic Mca/Lys(Dnp) substrates by MMP-3; format: biochemical, human; settings: other: MMP-3, 37° C., pH 7.5; 37.0 °C
T1 construct: made in house; host or cells: native secreted protein purified from culture medium of human rheumatoid synovial cells
From the text: (§1) All MMPs were purified in zymogen form. ProMMP-1 (Suzuki et al., Biochem., 29, 10261 (1990)), proMMP-2 (Okada et al., Eur. J. Biochem., 194, 721 (1990)), and proMMP-3 (Ito et al., Arch. Biochem. Biophys., 267, 211 (1988)) were purified from the culture medium of human rheumatoid synovial cells stimulated with rabbit macrophage-conditioned medium. ProMMP-9 was purified from the culture medium of HT-1080 cells as described in Morodomi et al., Biochem. J., 285, 603 (1992). ProMMP-2 and proMMP-9 were activated by reacting with 1 mM 4-aminophenylmercuric acetate at 37° C. for 45 minutes and 32 hours, respectively. ProMMP-1 was activated by reacting with 1 mM 4-aminophenylmercuric acetate and an equimolar amount of MMP-3 at 37° C. for 6 hours. After activation, MMP-3 was completely removed from MMP-1 by affinity chromatography using an anti-MMP-3 IgG Affi-Gel 10 column. The resin, Affi-Gel 10 (Biorad, Emoryville, Calif.), was coupled to anti-MMP-3 IgG (Okada et al., Annals of Rheumat. Dis., 48, 645 (1989)) per the manufacturer's protocol. Pro-MMP-3 was activated by reacting with 5 μg/mL chymotrypsin at 37° C. for 2 hours. Chymotrypsin was inactivated with 2 mM diisopropylfluorophosphate. The amounts of active MMP-1, MMP-2, and MMP-3 were determined by titration with tissue inhibitor of metalloproteinase-1(TIMP1) over a concentration range of 0.1-3 μg/mL, while the amount of active MMP-9 was determined by titration with TIMP-2 (0.1-3 μg/mL). TIMP-1 was isolated from the medium of HT-1080 cells as described in Morodomi et al., Biochem J., 285, 603 (1992).
(§2) Substrates were prepared as 10 mM stock solutions in dimethylsulfoxide (DMSO). Fluorescent assays were performed at λex =325 nm and λem =393 nm, which should encounter no interference from Trp residues, using a Hitachi fluorescence spectrophotometer F-3010. Initial total hydrolysis assays were run at a substrate concentration of […] to avoid filtering effects. The change in fluorescence at this concentration was 110 based on total hydrolysis of 1 μM substrate. A typical assay was carried out by incubating 100 μL of various concentrations of a substrate with 10 μL of an enzyme solution (2-20 nM) in 50 mM Tris-HCl, pH 7.5, 0.15M NaCl, 10 mM CaCl2, 0.05% Brij 35, 0.02% NaN3. The reaction was stopped by addition of 900 μl of 3% (v/v) glacial acetic acid. MMP-3 activity at pH 6.0 was measured in 50 mM sodium acetate buffer, pH 6.0, instead of Tris-HCl buffer. The amount of substrate hydrolysis was calculated based on the fluorescence values of the Mca-Arg-Pro-Lys-Pro-Gln standard solution after substraction of the reaction blank value (stopping solution added before the enzyme). Individual kinetic parameters (kcat and KM) were determined over a substrate concentration range of 2.5-75 μM and calculated by double reciprocal plots.

[2] = system: T2, CCC[C@H](NC(=O)[C@H](CCC(=O)O)NC(=O)[C@@H](NC(=O)[C@@H]1CCCN1C(=O)[C@H](CCCCN)NC(=O)[C@@H]1CCCN1C(=O)[C@H](CCCNC(=N)N)NC(=O)Cc1cc(=O)oc2cc(OC)ccc12)C(C)C)C(=O)N[C@@H](Cc1c[nH]c2ccccc12)C(=O)N[C@@H](CCCNC(=N)N)C(=O)N[C@@H](CCCCNc1ccc([N+](=O)[O-])cc1[N+](=O)[O-])C(N)=O; experiment: as above; format: biochemical, human
T2 construct: made in house; host or cells: native secreted protein purified from culture medium of human rheumatoid synovial cells
From the text: as §1, §2

[3] = system: T3, CCC[C@H](NC(=O)[C@H](C)NC(=O)[C@H](Cc1ccc(O)cc1)NC(=O)[C@@H]1CCCN1C(=O)[C@H](CCCCN)NC(=O)[C@@H]1CCCN1C(=O)[C@H](CCCNC(=N)N)NC(=O)Cc1cc(=O)oc2cc(OC)ccc12)C(=O)N[C@@H](Cc1c[nH]c2ccccc12)C(=O)N[C@@H](CCSC)C(=O)N[C@@H](CCCCNc1ccc([N+](=O)[O-])cc1[N+](=O)[O-])C(N)=O; experiment: as above; format: biochemical, human; settings: other: MMP-3, 37° C., pH 7.5; 37.0 °C
T3 construct: made in house; host or cells: native secreted protein purified from culture medium of human rheumatoid synovial cells
From the text: as §1, §2

[4] = system: T4, COc1ccc2c(CC(=O)N3CCC[C@H]3C(=O)N[C@@H](CCCCN)C(=O)N3CCC[C@H]3C(=O)N[C@@H](CCC(N)=O)C(=O)N[C@@H](CCC(N)=O)C(=O)N[C@@H](Cc3ccccc3)C(=O)N[C@@H](Cc3ccccc3)C(=O)NCC(=O)N[C@@H](CC(C)C)C(=O)N[C@@H](CCCCNc3ccc([N+](=O)[O-])cc3[N+](=O)[O-])C(=O)NCC(=O)O)cc(=O)oc2c1; experiment: Fluorometric hydrolysis of synthetic Mca/Lys(Dnp) substrates by MMP-9; format: biochemical; settings: other: MMP-9, 37° C., pH 7.5
T4 construct: made in house; host or cells: native secreted protein purified from culture medium of HT-1080 cells
From the text: as §1, §2

[5] = system: T5, CCC[C@H](NC(=O)[C@H](CCC(=O)O)NC(=O)[C@@H](NC(=O)[C@@H]1CCCN1C(=O)[C@H](CCCCN)NC(=O)[C@@H]1CCCN1C(=O)[C@H](CCCNC(=N)N)NC(=O)Cc1cc(=O)oc2cc(OC)ccc12)C(C)C)C(=O)N[C@@H](Cc1c[nH]c2ccccc12)C(=O)N[C@@H](CCCNC(=N)N)C(=O)N[C@@H](CCCCNc1ccc([N+](=O)[O-])cc1[N+](=O)[O-])C(N)=O; experiment: as above; format: biochemical; settings: other: MMP-9, 37° C., pH 7.5
T5 construct: made in house; host or cells: native secreted protein purified from culture medium of HT-1080 cells
From the text: as §1, §2

[6] = system: T6, CCC[C@H](NC(=O)[C@H](C)NC(=O)[C@H](Cc1ccc(O)cc1)NC(=O)[C@@H]1CCCN1C(=O)[C@H](CCCCN)NC(=O)[C@@H]1CCCN1C(=O)[C@H](CCCNC(=N)N)NC(=O)Cc1cc(=O)oc2cc(OC)ccc12)C(=O)N[C@@H](Cc1c[nH]c2ccccc12)C(=O)N[C@@H](CCSC)C(=O)N[C@@H](CCCCNc1ccc([N+](=O)[O-])cc1[N+](=O)[O-])C(N)=O; experiment: as above; format: biochemical; settings: other: MMP-9, 37° C., pH 7.5
T6 construct: made in house; host or cells: native secreted protein purified from culture medium of HT-1080 cells
From the text: as §1, §2

[7] = other: MMP-3, 25° C., pH 7.5, 25.0 °C
[8] = other: MMP-3, 37° C., pH 7.5, 37.0 °C
[9] = other: MMP-3, pH 6.0 (50 mM sodium acetate buffer), 37° C., pH 6.0, 37.0 °C

Chain of MMP-3 (Homo sapiens) (chain, as listed by the source): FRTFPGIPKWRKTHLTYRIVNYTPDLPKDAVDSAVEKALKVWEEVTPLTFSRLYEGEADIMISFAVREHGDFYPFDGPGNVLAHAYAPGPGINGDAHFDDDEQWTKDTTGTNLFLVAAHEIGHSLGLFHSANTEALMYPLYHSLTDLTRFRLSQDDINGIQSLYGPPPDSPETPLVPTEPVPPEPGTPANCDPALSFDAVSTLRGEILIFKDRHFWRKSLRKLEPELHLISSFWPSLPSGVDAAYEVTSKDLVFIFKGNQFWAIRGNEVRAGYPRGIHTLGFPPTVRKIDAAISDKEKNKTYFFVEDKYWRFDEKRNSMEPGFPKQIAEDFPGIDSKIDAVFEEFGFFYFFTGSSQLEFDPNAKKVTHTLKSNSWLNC
Chain of MMP-9 (Homo sapiens) (chain, as listed by the source): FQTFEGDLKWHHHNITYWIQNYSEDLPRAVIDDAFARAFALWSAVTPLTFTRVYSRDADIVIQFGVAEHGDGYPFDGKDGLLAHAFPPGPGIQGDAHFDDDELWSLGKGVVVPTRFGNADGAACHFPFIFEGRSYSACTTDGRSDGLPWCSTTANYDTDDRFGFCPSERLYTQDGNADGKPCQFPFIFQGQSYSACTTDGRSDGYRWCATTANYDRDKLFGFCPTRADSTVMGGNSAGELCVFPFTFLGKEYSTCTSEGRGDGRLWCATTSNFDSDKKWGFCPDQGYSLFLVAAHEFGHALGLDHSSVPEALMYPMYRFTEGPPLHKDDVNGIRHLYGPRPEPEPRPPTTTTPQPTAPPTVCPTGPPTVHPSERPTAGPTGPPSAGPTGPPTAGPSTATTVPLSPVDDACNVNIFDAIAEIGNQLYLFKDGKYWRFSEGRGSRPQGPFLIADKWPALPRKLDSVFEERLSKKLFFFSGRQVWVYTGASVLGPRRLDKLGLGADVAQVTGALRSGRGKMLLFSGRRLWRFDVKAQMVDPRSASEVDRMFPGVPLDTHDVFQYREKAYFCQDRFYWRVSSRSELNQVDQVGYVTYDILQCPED

Substance: MMP-3 (Homo sapiens)
- Km [1]: 50 µM
- kcat [1]: 0.53 S^-1
- kcat/Km [1]: 10,900 S^-1 M^-1
- Km [2, 7]: 20 µM
- kcat [2, 7]: 1.31 S^-1
- kcat/Km [2, 7]: 65,700 S^-1 M^-1
- Km [2, 8]: 25 µM
- kcat [2, 8]: 5.40 S^-1
- kcat/Km [2, 8]: 218,000 S^-1 M^-1
- Km [2, 9]: 7.5 µM
- kcat [2, 9]: 2.20 S^-1
- kcat/Km [2, 9]: 302,000 S^-1 M^-1
- Km [3]: 66 µM
- kcat [3]: 3.95 S^-1
- kcat/Km [3]: 59,400 S^-1 M^-1

Substance: MMP-9 (Homo sapiens)
- Km [4]: 45 µM
- kcat [4]: 0.18 S^-1
- kcat/Km [4]: 4,000 S^-1 M^-1
- Km [5]: 28 µM
- kcat [5]: 0.282 S^-1
- kcat/Km [5]: 10,100 S^-1 M^-1
- Km [6]: 25 µM
- kcat [6]: 1.38 S^-1
- kcat/Km [6]: 55,300 S^-1 M^-1
